Data as given in paper PMC10516627 (Nucleic Acids Research, 2023).

Target: GST-RNF168 (human, UniProt Q8IYW5 1-571)
Test: pull-down

GST-RNF168, sequence (Q8IYW5 whole entry): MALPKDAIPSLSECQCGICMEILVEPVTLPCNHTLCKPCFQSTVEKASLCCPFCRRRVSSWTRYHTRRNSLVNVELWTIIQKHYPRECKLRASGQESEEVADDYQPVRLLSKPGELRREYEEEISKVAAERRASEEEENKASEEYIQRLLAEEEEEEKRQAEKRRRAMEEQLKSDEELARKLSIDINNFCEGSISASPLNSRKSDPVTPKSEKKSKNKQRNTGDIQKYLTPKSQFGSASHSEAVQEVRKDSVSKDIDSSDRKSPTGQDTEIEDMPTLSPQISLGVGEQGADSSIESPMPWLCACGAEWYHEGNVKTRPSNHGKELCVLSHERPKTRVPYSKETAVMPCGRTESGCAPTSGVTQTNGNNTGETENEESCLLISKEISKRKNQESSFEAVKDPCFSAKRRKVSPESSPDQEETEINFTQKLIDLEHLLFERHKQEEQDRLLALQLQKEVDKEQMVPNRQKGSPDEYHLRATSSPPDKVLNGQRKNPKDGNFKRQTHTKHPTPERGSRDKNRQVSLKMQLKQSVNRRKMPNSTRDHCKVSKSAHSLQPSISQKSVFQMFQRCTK

binding result	Binder
binds	His-HDAC6 DAC1 domain (1-440 aa) (domain or fragment, human, UniProt Q9UBN7 1-440, looked up) MTSTGQDSTTTRQRRSRQNPQSPPQDSSVTSKRNIKKGAVPRSIPNLAEVKKKGKMKKLGQAMEEDLIVGLQGMDLNLEAEALAGTGLVLDEQLNEFHCLWDDSFPEGPERLHAIKEQLIQEGLLDRCVSFQARFAEKEELMLVHSLEYIDLMETTQYMNEGELRVLADTYDSVYLHPNSYSCACLASGSVLRLVDAVLGAEIRNGMAIIRPPGHHAQHSLMDGYCMFNHVAVAARYAQQKHRIRRVLIVDWDVHHGQGTQFTFDQDPSVLYFSIHRYEQGRFWPHLKASNWSTTGFGQGQGYTINVPWNQVGMRDADYIAAFLHVLLPVALEFQPQLVLVAAGFDALQGDPKGEMAATPAGFAQLTHLLMGLAGGKLILSLEGGYNLRALAEGVSASLHTLLGDPCPMLESPGAPCRSAQASVSCALEALEPFWEVLVR
binds	His-HDAC6 DAC2 domain (441-835 aa) (domain or fragment, human, UniProt Q9UBN7 441-835, looked up) STETVERDNMEEDNVEESEEEGPWEPPVLPILTWPVLQSRTGLVYDQNMMNHCNLWDSHHPEVPQRILRIMCRLEELGLAGRCLTLTPRPATEAELLTCHSAEYVGHLRATEKMKTRELHRESSNFDSIYICPSTFACAQLATGAACRLVEAVLSGEVLNGAAVVRPPGHHAEQDAACGFCFFNSVAVAARHAQTISGHALRILIVDWDVHHGNGTQHMFEDDPSVLYVSLHRYDHGTFFPMGDEGASSQIGRAAGTGFTVNVAWNGPRMGDADYLAAWHRLVLPIAYEFNPELVLVSAGFDAARGDPLGGCQVSPEGYAHLTHLLMGLASGRIILILEGGYNLTSISESMAACTRSLLGDPPPLLTLPRPPLSGALASITETIQVHRRYWRSLR
